Results reported in publication PMC10461225, “Creation of a Peptide Antagonist of the GFRAL–RET Receptor Complex for the Treatment of GDF15-Induced Malaise” (Journal of Medicinal Chemistry, 2023).
Like-named read-outs stand apart in the source and are kept apart here. Blank lines part the entries; values can stand above or below the molecule they belong to.

Assays:
Sprague–Dawley rats [1] = settings: rat, in vivo, ip, 6 mg/kg
Description: In this set of experiments, rats were treated with the highly emetogenic chemotherapeutic agent, cisplatin. Using this gold-standard preclinical model of CINV, we first determined the effects of a single systemic dose of GRASP administered shortly before cisplatin.
Adult male Sprague–Dawley rats (Charles River) weighing ∼250–270 g on arrival (N = 158) were housed under a 12 h:12 h light/dark cycle in a temperature- and humidity-controlled vivarium (23 ± 1 °C). Animals were fed ad libitum with a standard chow diet (Purina LabDiet 5001) with ad libitum access to tap water and kaolin pellets (Research Diets, K50001) for at least 5 days before the start of the experiment. All animals were naïve to experimental drugs and test treatments before the beginning of the experiment. Rats were habituated in single-hanging wire cages and received saline IP injections every day for 1 week before the onset of the experiment. […]
Using a similar paradigm, the impact of GRASP on cisplatin-induced nausea and anorexia was assessed. […] Food intake and kaolin consumption were measured at 3, 6, and 24 h postinjection.
Food intake and kaolin consumption were analyzed using repeated measures 2 × 3 ANOVAs, 2 × 2 ANOVAs, or one-way ANOVAs followed by Tukey’s post hoc tests. All data were expressed as means ± SEM. […] All data were analyzed using Prism 9 GraphPad Software (San Diego, California).

[2] = target: purified human GFRAL extracellular domain (ECD); settings: untagged GDF15, purified human GFRAL ECD, SPR and flow cytometry, ref 6 (Yang et al.), read-out: reported KD of GDF15 for human GFRAL, cited from earlier work
Description: Peptide binding to a segment of recombinant human GFRAL containing the complete known binding domain of GDF15 and the remaining extracellular domain (S19–E351) of the receptor as defined by UniProt (Q6UXV0) was evaluated by SPR (Figure 1). Initial screening aimed to confirm GFRAL immobilization and system functionality by evaluating the dose–response profile to a commercial formulation of HEK293 cell-derived recombinant human GDF15. […] GRASPCy5 binding was evaluated by flow cytometry and compared with results from untransfected HEK293 cells.

Sprague–Dawley rats [3] = experiment: GDF15-induced anorexia and pica (kaolin intake) in rats; type: in vivo, rat
Excerpt: In initial experiments, we examined whether central administration of GRASP (i.e., directly into the fourth ventricle or fourth ICV) would counteract the effects of centrally delivered GDF15 in rats. Because the AP/NTS is located on the dorsal surface of the hindbrain at the caudal end of the fourth ventricle, this route of administration facilitates targeted and selective drug delivery near the sites of GFRAL expression. To assess the impact of these interventions, we measured pica behavior, i.e., the ingestion of non-nutritive substances such as kaolin,[29] as this represents an accurate and reliable proxy for malaise in rats and has been used to examine the effects of agents known to cause nausea in humans.[29]−[31]
To increase the translational impact of this study and more closely mimic a potential clinical scenario, we conducted a dose–response study in which both GRASP and GDF15 were administered systemically to rats via the intraperitoneal (IP) route.
All systemic treatments were delivered by intraperitoneal (IP) injection.
To evaluate the impact of GRASP on GDF15-induced anorexia and nausea (proxied by kaolin ingestion) in rats (n = 10, 400–450 g), GRASP (300 and 3000 pmol), or vehicle control was administered centrally immediately before intraventricular infusion of GDF15 (30 pmol). […]
All data were expressed as means ± SEM.

[4] = target: T1, Recombinant His-tagged human GFRAL (Ser19–Glu351) (human, UniProt Q6UXV0 19-351); experiment: SPR; GFRAL (S19-E351) immobilised by amine coupling (EDC/NHS) on a high-capacity carboxyl sensor (Nicoya OpenSPR); peptides or GDF15 as analyte; HBSS pH 7.4 running buffer without BSA; 20 uL/min; settings: both partners purified
T1 construct: GDNF family receptor alpha-like (GFRAL), human, extracellular domain S19-E351 as defined by UniProt Q6UXV0; also called GFRAL–ECD; GFRAL (S19–E351); source: bought: ACRO Biosystems (GFA-H52H3), expressed in HEK293 cells
T1 sequence (looked up): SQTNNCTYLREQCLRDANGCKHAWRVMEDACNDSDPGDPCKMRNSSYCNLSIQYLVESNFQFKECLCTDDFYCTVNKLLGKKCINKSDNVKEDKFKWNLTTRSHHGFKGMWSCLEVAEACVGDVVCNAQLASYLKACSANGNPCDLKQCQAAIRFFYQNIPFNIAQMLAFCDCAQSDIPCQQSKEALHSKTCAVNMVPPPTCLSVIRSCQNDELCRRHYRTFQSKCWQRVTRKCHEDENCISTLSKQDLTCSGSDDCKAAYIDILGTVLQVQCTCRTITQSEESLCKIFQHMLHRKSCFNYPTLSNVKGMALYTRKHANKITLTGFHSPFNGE

[5] = target: T2, recombinant human GFRAL (S19–E351) (Homo sapiens, UniProt Q6UXV0); experiment: SPR, high-capacity carboxyl sensor with immobilised GFRAL, peptide or GDF15 as analyte; settings: HEK293-derived recombinant human GDF15, TraceDrawer kinetic evaluation, read-out: binding affinity (KD) of GDF15 control to GFRAL
T2 construct: contained a truncated Ser19–Glu351 domain was used for all SPR experiments; His; purchased ACRO Biosystems GFA-H52H3; host or cells: HEK293 cells
T2 sequence (Q6UXV0 19-351): T1 sequence (looked up)
Description: Peptide binding to a segment of recombinant human GFRAL containing the complete known binding domain of GDF15 and the remaining extracellular domain (S19–E351) of the receptor as defined by UniProt (Q6UXV0) was evaluated by SPR (Figure 1). Initial screening aimed to confirm GFRAL immobilization and system functionality by evaluating the dose–response profile to a commercial formulation of HEK293 cell-derived recombinant human GDF15. […] For example, Yang et al.[6] reported a KD of ∼1 nM for the interaction between untagged GDF15 and purified human GFRAL extracellular domain (ECD) and binding of GDF15 to HEK293 transfectants expressing human GFRAL-EDC (Ser19–Glu351) and GDF15 via SPR and flow cytometry, respectively.
The binding of each peptide to the ECD of GFRAL was initially confirmed from the results of carboxyl-sensor SPR (SI, Figure S9) with bound GFRAL–ECD. A broad range of binding affinities (KD values ranging from […]) was observed. […] We hypothesized this may be due to obstruction of the binding site of GFRAL–ECD in its immobilized state. Thus, we opted for a different SPR approach in which we conjugated GRASP to biotin and immobilized the peptide to the sensor surface, this time via biotin–streptavidin affinity. Increasing concentrations of GFRAL–ECD were then evaluated as the mobile phase against the immobilized GRASP. […]

Molecule: cis-diammineplatinum dichloride [cisplatin]
kaolin consumption and anorexia induced by cisplatin (Sprague–Dawley rats [1]): leads to significant kaolin consumption and anorexia

Kd [4]: 6.02 nM
Kd [5]: 6 nM
B1: Recombinant human growth differentiation factor 15 (GDF15) (ligand, UniProt Q99988 195-308, looked up)
chain: ARARNGDHCPLGPGRCCRLHTVRASLEDLGWADWVLSPREVQVTMCIGACPSQFRAANMHAQIKTSLHRLKPDTVPAPCCVPASYNPMVLIQKTDTGVSLQTYDDLLAKDCHCI
notes: Growth differentiation factor 15, human, HEK293-derived commercial recombinant protein; commercial GDF15 is commonly the mature C-terminal cytokine (a disulfide-linked dimer), so the limits should be checked with the supplier; source: bought: Abcam (ab302451), expressed in HEK293 cells
Kd ([2]; listed as native ligand): 1 nM
Kd [2]: ~1 nM
kaolin consumption and anorexia induced by GDF15, central (Sprague–Dawley rats [3]; GDF15 30 pmol central administration, vs vehicle): induced significant kaolin consumption and anorexia
kaolin consumption and anorexia induced by GDF15, systemic (Sprague–Dawley rats [3]; GDF15 20 μg/kg IP): reliably induced kaolin consumption and modest, albeit statistically significant anorexia
